The target in test [1] is T1, human PCSK9 (proprotein convertase subtilisin kexin type 9) (human, UniProt Q8NBP7 31-692).
T1 construct: Directly immobilized (SPR ProteOn), biotinylated (BLI), or in solution, depending on the assay; also called hPCSK9
As to the kind of experiment: FRET direct binding, anti-his6 antibody. The text has this: (§1) Table 11 summarizes the overall data from these three FRET assays.

Test [2] deals with T1, human PCSK9 (proprotein convertase …). In words: BLI Octet Red, 37 C. As to the method:
(§2) Tips were then immersed into a buffer-only well for observation of Adnectin dissociation. Experiments were performed in a temperature controlled environment at either 25 or 37° C., and the oscillation speed was set at 1500 rpm.
(§3) Binding interaction analysis was performed using proprietary software from Fortebio (Fortebio Data Analysis Software version 6.3.0.36). Global fits were performed for all samples, using a 1:1 binding model. The nature of these global fits constrained all values of concentration to a single pair of association and dissociation rates that were themselves constrained to each other. Affinities (KD), association and dissociation rates were averaged over the various loading levels used in the analysis.

For test [3] the target is unchanged. As to the kind of experiment: FRET, competitor ATI001125.
Source text: as §1

Another test addresses cynomolgus monkey PCSK9 (cynomolgus monkey, UniProt A0A7N9D9N8 150-747). In words: FRET, competitor EGFA peptide.
Source text: as §1

Test [4] has as its target T1, human PCSK9 (proprotein convertase …). In words: FRET, competitor EGFA peptide.
Source text: as §1

The target is the same in test [5]. As to the kind of experiment: BLI, biotinylated hPCSK9 on sensor tips. As for the experimental part: as §2, §3
Background: Biolayer interferometry detects binding as a change in optical thickness at a sensor tip.

Data on six molecules can be found in patent US20120094909A1 (Bristol-Myers Squibb, published 2012).

What is called EC50 is the concentration at which the effect is half-maximal. The Kd is the concentration at which binding is half-saturated. The IC50 is the concentration that inhibits the measured activity by half. As a reminder, the koff is the rate constant with which the complex falls apart. As usually defined, the kon is the second-order rate constant of association.

B1: 2382H09 (designed binder)
chain: MGVSDVPRDLEVVAATPTSLLISWDAPAAAYGYYRITYGETGGNSPVQEFTVPSSKGTATISGLKPGVDYTITVYAVEFDFPGSGYYHRPISINYRTEIDKPSQHHHHHH
notes: Anti-PCSK9 Adnectin, His6-tagged
For the molecule B1, the concentration for a half-maximal effect (EC50) in test [1] turned out to be 3.6 nM; in the test with cynomolgus monkey PCSK9, 17.9 nM; in test [4] it was 0.9 nM. For the same molecule, the Kd in test [2] and in test [5] was 1.86 nM throughout. Further, the IC50 was determined as 0.3 nM in test [3] and 0.9 nM in test [4]. The koff in test [5] came to 0.000483 s⁻¹. Further, the kon in test [5] came to 251000 M⁻¹ s⁻¹.

B2: 2382H10 (designed binder)
chain: MGVSDVPRDLEVVAATPTSLLISWDAPAGGYGYYRITYGETGGNSPVQEFTVPVSKGTATISGLKPGVDYTITVYAVEFDFPGSGYYHRPISINYRTEIDKPSQHHHHHH
notes: as for B1
B2: the EC50 in test [1] turned out to be 4.6 nM; with cynomolgus monkey PCSK9, 18.2 nM; in test [4], 2.6 nM. The dissociation constant Kd in test [2] and in test [5] was 1.4 nM each time. For the same molecule, the IC50 in test [3] was 0.4 nM; in test [4], 2.6 nM. The koff in test [5] is 0.000382 s⁻¹. Also, the kon in test [5] amounted to 288000 M⁻¹ s⁻¹.

B3: 2451H07 (designed binder)
chain: MGITDVPRDLEVVAATPTSLLISWNPPDVNYGYYRITYGETGGNSPLQEFTVPVSKGTATISGLKPGVDYTITVYAVEYPYAHAGYYHRPISINYRTEIDKPSQHHHHHH
notes: as for B1
For B3, the EC50 in test [1] was 13.2 nM; with cynomolgus monkey PCSK9, 27.1 nM; in test [4], 0.2 nM. The Kd in test [2] and in test [5] was 2.08 nM in each case. Moreover, the IC50 in test [3] and in test [4] was 0.2 nM each time. The same molecule came in with a koff in test [5] of 0.00094 s⁻¹. This molecule also had a kon in test [5] of 448000 M⁻¹ s⁻¹.

B4: 2381D04 (designed binder)
chain: MGVSDVPRDLEVVAATPTSLLISWEPFSRLPGGGEYYRITYGETGGNSPLQQFTVPGSKGTATISGLKPGVDYTITVYAVEFPYDHSGYYHRPISINYRTEIDKPSQHHHHHH
notes: as for B1
Regarding B4, the concentration for a half-maximal effect (EC50) was found to be 3.7 nM in test [1], 12 nM with cynomolgus monkey PCSK9 and 2.9 nM in test [4]. In addition, the Kd in test [2] and in test [5] was 0.237 nM in each case. The IC50 amounted to 0.5 nM in test [3] and 2.9 nM in test [4]. Besides, the off-rate (koff) in test [5] turned out to be 6.9e-05 s⁻¹. Further, the kon in test [5] stood at 266000 M⁻¹ s⁻¹.

B5: 2381B04 (designed binder)
chain: MGVSDVPRDLEVVAATPTSLLISWEPFSRLPGGGEYYRITYGETGGNSPLQQFTVPGSKGTATISGLKPGVDYTITVYAVEYPYEHSGYYHRPISINYRTEIDKPSQHHHHHH
notes: as for B1
With B5, the EC50 was determined as 4.2 nM in test [1], 17.3 nM in the test with cynomolgus monkey PCSK9 and 2.4 nM in test [4]. The Kd in test [2] and in test [5] was 0.527 nM throughout. The IC50 is 0.5 nM in test [3] and 2.4 nM in test [4]. Moreover, the koff in test [5] was found to be 0.00016 s⁻¹. Besides, the kon in test [5] came to 309000 M⁻¹ s⁻¹.

B6: 2381B02 (designed binder)
chain: MGVSDVPRDLEVVAATPTSLLISWEPFSRLPGGGEYYRITYGETGGNSPLQQFTVPGSKGTATISGLKPGVDYTITVYAVEYPYDYSGYYHRPISINYRTEIDKPSQHHHHHH
notes: as for B1
Regarding B6, the EC50 in test [1] amounted to 8.4 nM; with cynomolgus monkey PCSK9 it was 9.8 nM; in test [4] it was 2.5 nM. The Kd in test [2] and in test [5] was 3.29 nM in each case. The results for the IC50 in test [3] and in test [4] were 0.5 nM and 2.5 nM, respectively. In test [5], this molecule returned a koff of 0.000831 s⁻¹. In test [5], this molecule yielded a kon of 265000 M⁻¹ s⁻¹.
